What was measured:
Experiment in all cases: Mass spectroscopy proteomics, semi-quantitative binding affinity of serum proteins (plaqueproteome, Table 2)
Conditions in all cases: higher number = stronger affinity
Tau plaque particles = test system: Tau plaque particles; parameters: species or system human
Experimental: For Tau-74 (74-102) (Exon 3/Insert 2 domain) preparation, 1 mg of Tau-74 was suspended in 1 mL of PBS and the sample was incubated at 37° C. for 2 hrs. Similarly for preparing Tau-275 (275-305) (Repeat 2 domain) 1 mg of the peptide was suspended in 1 mL of PBS and the sample was incubated at 37° C. for 2 hrs. After incubation, all the samples were centrifuged for 5 min. at 5000 rpm to remove precipitate, if any, and the supernatant containing oligomers/aggregates were used for in vitro amyloid plaque particles formation assay. For detecting Tau plaque particles, Thioflavin S (Ex/Em=430 nm/550 nm) amyloid binding fluorescent dye (10 μg) was used in the assay.
Next, to isolate Tau plaque particles, as performed for Abeta-42 and Abeta-28 plaque particles isolation, diluted serum samples were used for incubation separately with Tau-45, Tau-74 and Tau-275 oligomers/aggregates. Each assay was performed in 1 mL reaction (800 μL of 50% plasma or serum) and 200 μL (30 μg) of each Tau aggregates and the mixtures were incubated at 37° C. for 1 hr. To the each mixture Thioflavin S dye (120 μg) was added and the sample was incubated for additional 30 min at 37° C. After the incubation, each sample was directly used for sample acquisition using flow cytometer (FACS ARIA II, BD Biosciences, San Jose, Calif.). After initial detection of Tau plaque particles, gates were drawn in the acquisition blot to separately sort and isolate fluorescently labeled Tau plaque particles.
(§1) For preparing trypsin digested peptide sequences, the isolated plaque particles were centrifuged at 10000 rpm for 5 min and the pellet containing plaque particles was resuspended in 100 μl PBS buffer. Stock solutions of digestion buffer (Ammonium Biocarbonate 50 mM), reducing buffer (DDT 100 mM) and alkylation buffer (lodoaceamide 100 mM) were prepared and stored at −20° C. for up to two months. For trypsin digestion, 100 μl of each plaque particles (2000 of Abeta-42, cholesterol, Tau and alpha-synuclein) were precipitated using cold acetone −80° C. by adding 4X's the volume. The samples were placed on dry ice for 10 min with intermittent vortex. Next, the samples were centrifuged at 4° C. at 10000 G for 10 min. Top layer of acetone was carefully removed from the tube with care not to disturb the plaque particles pellet. The samples were speed-vac for 10 min to ensure all acetone has been boiled away. The plaque particles pellet were reconstituted with 15 μl 8M Urea 100 mM Ammonium bicarbonate stock and 20 μl protease max solution. The protease max solution (Promega, Madison, Wis.) was prepared from stock by adding 60 μl 50 mM Ammonium bicarbonate and used for 3 solution digests (20 μl each). […] The tubes were incubated at 55° C. for 30 minutes. The tubes were then removed and brought to the room temperature followed by addition of 3.2 μl of 1M acrylamide and incubated at room temperature for 30 minutes. To the sample, 63 μL of 50 mM Ammonium bicarbonate was added for a final volume of 98 μl and 2 μl of trypsin (10 μg, Trypsin/Lys C Mix). After mixing the solution with pipet the samples were incubated at 37° C. overnight. After the overnight digest, the tryptic digest were quenched and acidified by adding 10 μl of 50% formic acid/water stock dilution. The samples were centrifuged at 10000 G for 2 minutes and purified using stage tip and used for MS/Mass analysis.
(§2) All MS/MS samples were analyzed using Sequest (Thermo Fisher Scientific, San Jose, Calif., USA; version 1.0). Sequest was set up to search the SUMS_uniprot_Human database (35847 entries) assuming the digestion enzyme strict trypsin. Sequest was searched with a fragment ion mass tolerance of 1.00 Da and a parent ion tolerance of 20 PPM. Propionamide of cysteine was specified in Sequest as a fixed modification. Oxidation of methionine and phospho of serine, threonine and tyrosine were specified in Sequest as variable modifications.

[1] = biological target: T1, alpha-synuclein plaque particles (Homo sapiens, UniProt P37840)
T1 construct: 140 amino acids polypeptide
Experimental: To prepare oligomers/aggregates of human alpha-synuclein (140 amino acids polypeptide), 1 mg of the recombinant alpha-synuclein protein was suspended in 1 mL of PBS and the sample was incubated at 37° C. for 2 hrs. After incubation, all the samples were centrifuged for 5 min. at 5000 rpm to remove precipitate, if any, and the supernatant containing oligomers/aggregates were used in vitro plaque particles formation assay. For detecting alpha-synuclein plaque particles Thioflavin S (Ex/Em=430 nm/550 nm) amyloid binding fluorescent dye (10 μg) was used.
Similarly, to isolate alpha-synuclein plaque particles, diluted plasma or serum samples obtained from AD subjects were used for incubation with alpha-synuclein plaque oligomers/aggregates. Each assay was performed in 1 mL reaction (800 μL of 50% plasma or serum) and 200 μL (30 μg) of the alpha-synuclein aggregates and the mixtures were incubated at 37° C. for 1 hr. To the mixture Thioflavin S dye (120 μg) was added and the sample was incubated for additional 30 min at 37° C. After the incubation, the mixture was directly used for sample acquisition using flow cytometer (FACS ARIA II, BD Biosciences, San Jose, Calif.). After initial detection of alpha-synuclein plaque particles, gates were drawn in the acquisition blot to separately sort and isolate fluorescently labeled alpha-synuclein particles.
as §1, §2
Scaffold (version Scaffold_4.2.1, Proteome Software Inc., Portland, Oreg.) was used to validate MS/MS based peptide and protein identifications.

[2] = biological target: T2, Abeta-42 plaque particles (Homo sapiens, UniProt P05067)
T2 construct: Abeta 1-42
Experimental: Next to isolate serum derived Abeta-42 plaque particles, the plasma or serum samples obtained from AD subjects were first centrifuged at 5,000 rpm for 5 min and the supernatants were transferred to new centrifuge tubes. Next, the supernatants were diluted in PBS to make 50% of the serum and plasma samples and used for incubation with Abeta-42 plaque oligomers/aggregates. Each assay was performed in 1 mL reaction (800 μL of 50% plasma or serum) and 200 μL (30 μg) of the Abeta-42 aggregates and the mixtures were incubated at 37° C. for 1 hr. To the mixture Thioflavin S dye (120 μg) was added and the sample was incubated for additional 30 min at 37° C. After the incubation, the mixture was directly used for sample acquisition using flow cytometer (FACS ARIA II, BD Biosciences, San Jose, Calif.). After initial detection of Abeta-42 plaque particles in the acquisition blot, gates were drawn in fluorescent dot blot to separately sort and isolate fluorescently labeled Abeta-42 particles.
as §1, §2
Scaffold (version Scaffold_4.2.1, Proteome Software Inc., Portland, Oreg.) was used to validate MS/MS based peptide and protein identifications. […] Protein probabilities were assigned by the Protein Prophet algorithm (Nesvizhskii, Al et al 2003). […] Proteins sharing significant peptide evidence were grouped into clusters. Proteins were annotated with GO terms from NCBI (downloaded Jan. 17, 2014).

[3] = test system: Low density cholesterol (Chl small) plaque particles; parameters: species or system human
Experimental: (§3) The goal was to isolate plaque particles synthesized in the bio-fluids in a relatively pure form to enable their subsequent use for identification of components that contribute to the plaque formation. In order to isolate cholesterol plaque particles, the plasma or serum samples obtained from atherosclerotic subjects were first centrifuged at 5,000 rpm for 5 min and the supernatants were transferred to new centrifuge tubes. Next, the supernatants were diluted in PBS to make 50% of the serum and used for incubation with cholesterol oligomers/aggregates. Each assay was performed in 1 mL reaction (800 μL of 50% plasma or serum) and 200 μL (30 μg) of the Cholesterol aggregates and the mixtures were incubated at 37° C. for 1 hr After the incubation, the mixture was directly used for sample acquisition using flow cytometer (FACS ARIA II, BD Biosciences, San Jose, Calif.). […] In order to isolate these fractions, three sets of gates were drawn in the acquisition blot to separately sort and isolate High density or high complex cholesterol particles, Low density or low complex cholesterol particles and both High and low density cholesterol particles together.
as §1, §2
(§4) Scaffold (version Scaffold_4.2.1, Proteome Software Inc., Portland, Oreg.) was used to validate MS/MS based peptide and protein identifications. […] Protein probabilities were assigned by the Protein Prophet algorithm (Nesvizhskii, Al et al 2003).

[4] = test system: High Density cholesterol (Chl Large) plaque particles; parameters: species or system human
Experimental: as §3, §1, §2, §4

Row | Molecule | Semi-quantitative analysis of proteins binding to different plaque particles: Tau (Tau plaque particles) | Semi-quantitative analysis of proteins binding to different plaque particles: Synuclein [1] | Semi-quantitative analysis of proteins binding to different plaque particles: Abeta-42 [2] | Semi-quantitative analysis of proteins binding to different plaque particles: Chl small [3] | Semi-quantitative analysis of proteins binding to different plaque particles: Chl Large [4]
1 | Complement factor I (protein) KVTYTSQEDLVEKKCLAKKYTHLSCDKVFCQPWQRCIEGTCVCKLPYQCPKNGTAVCATNRRSFPTYCQQKSLECLHPGTKFLNNGTCTAEGKFSVSLKHGNTDSEGIVEVKLVDQDKTMFICKSSWSMREANVACLDLGFQQGADTQRRFKLSDLSINSTECLHVHCRGLETSLAECTFTKRRTMGYQDFADVVCYTQKADSPMDDFFQCVNGKYISQMKACDGINDCGDQSDELCCKACQGKGFHCKSGVCIPSQYQCNGEVDCITGEDEVGCAGFASVTQEETEILTADMDAERRRIKSLLPKLSCGVKNRMHIRRKRIVGGKRAQLGDLPWQVAIKDASGITCGGIYIGGCWILTAAHCLRASKTHRYQIWTTVVDWIHPDLKRIVIEYVDRIIFHENYNAGTYQNDIALIEMKKDGNKKDCELPRSIPACVPWSPYLFQPNDTCIVSGWGREKDNERVFSLQWGEVKLISNCSKFYGNRFYEKEMECAGTYDGSIDACKGDSGGPLVCMDANNVTYVWGVVSWGENCGKPEFPGVYTKVANYFDWISYHVGRPFISQYNV | 3 | 4 | 0 | 3 | 4
2 | Complement C1r subcomponent (protein) SIPIPQKLFGEVTSPLFPKPYPNNFETTTVITVPTGYRVKLVFQQFDLEPSEGCFYDYVKISADKKSLGRFCGQLGSPLGNPPGKKEFMSQGNKMLLTFHTDFSNEENGTIMFYKGFLAYYQAVDLDECASRSKSGEEDPQPQCQHLCHNYVGGYFCSCRPGYELQEDTHSCQAECSSELYTEASGYISSLEYPRSYPPDLRCNYSIRVERGLTLHLKFLEPFDIDDHQQVHCPYDQLQIYANGKNIGEFCGKQRPPDLDTSSNAVDLLFFTDESGDSRGWKLRYTTEIIKCPQPKTLDEFTIIQNLQPQYQFRDYFIATCKQGYQLIEGNQVLHSFTAVCQDDGTWHRAMPRCKIKDCGQPRNLPNGDFRYTTTMGVNTYKARIQYYCHEPYYKMQTRAGSRESEQGVYTCTAQGIWKNEQKGEKIPRCLPVCGKPVNPVEQRQRIIGGQKAKMGNFPWQVFTNIHGRGGGALLGDRWILTAAHTLYPKEHEAQSNASLDVFLGHTNVEELMKLGNHPIRRVSVHPDYRQDESYNFEGDIALLELENSVTLGPNLLPICLPDNDTFYDLGLMGYVSGFGVMEEKIAHDLRFVRLPVANPQACENWLRGKNRMDVFSQNMFCAGHPSLKQDACQGDSGGVFAVRDPNTDRWVATGIVSWGIGCSRGYGFYTKVLNYVDWIKKEMEEED | 4 | 3 | 0 | 4 | 2
3 | Heparin cofactor 2 (protein) GSKGPLDQLEKGGETAQSADPQWEQLNNKNLSMPLLPADFHKENTVTNDWIPEGEEDDDYLDLEKIFSEDDDYIDIVDSLSVSPTDSDVSAGNILQLFHGKSRIQRLNILNAKFAFNLYRVLKDQVNTFDNIFIAPVGISTAMGMISLGLKGETHEQVHSILHFKDFVNASSKYEITTIHNLFRKLTHRLFRRNFGYTLRSVNDLYIQKQFPILLDFKTKVREYYFAEAQIADFSDPAFISKTNNHIMKLTKGLIKDALENIDPATQMMILNCIYFKGSWVNKFPVEMTHNHNFRLNEREVVKVSMMQTKGNFLAANDQELDCDILQLEYVGGISMLIVVPHKMSGMKTLEAQLTPRVVERWQKSMTNRTREVLLPKFKLEKNYNLVESLKLMGIRMLFDKNGNMAGISDQRIAIDLFKHQGTITVNEEGTQATTVTTVGFMPLSTQVRFTVDRPFLFLIYEHRTSCLLFMGRVANPSRS | 6 | 1 | 0 | 1 | 3

— patent publication US9618524B2, “Method, composition, isolation and identification of a plaque particle and related biomarker” (Plaxgen Inc., priority 2012, dated 2017)
